The target in test [1] is His-tagged IDO1 human recombinant protein (71182, BPS Biosciences) (human) (UniProt P14902). Description: cell-based or functional assay.
The target is the same in test [2]. Description: cell-based or functional assay. This is another data set of the same source.
Test [3] shares this target. Put plainly: binding affinity, assay not named.
Test [4] has the same target. Description: ELISA binding assay; deprotected small molecule (hydroxyamidine free). A general note: An ELISA detects its analyte on a solid surface through an enzyme-linked reagent.
The target is the same in test [5]. Description: ELISA.
The target is the same in test [6]. Description: sandwich ELISA: biotinylated macrocycle on NeutrAvidin plate, His-tagged IDO1 titrated, anti-6XHis-AP detection.
The target is the same in test [7]. Description: ELISA: biotin-PEG3 macrocycle on NeutrAvidin plate, His-tagged human IDO1 titrated, AP-conjugated anti-6XHis antibody, fluorescence.
Test [8] has the same target. Description: ELISA binding assay.
Test [9] has the same target. Put plainly: ELISA binding assay; small molecule masked as its oxadiazolone (protected).
Test [10] shares this target. Put plainly: binding analysis, method not named.

Read-outs that look alike come from different tables or passages of the source. Bridge positions count the residues as written; N and C are the ends. Square brackets hold non-standard residues; d marks the D form. Ends that are not written are not given here. Az4 = not defined here Bounds are passed on as bounds.

Sequence of His-tagged IDO1 human recombinant protein (71182, BPS Biosciences) (human) (P14902 2-403 limits assumed): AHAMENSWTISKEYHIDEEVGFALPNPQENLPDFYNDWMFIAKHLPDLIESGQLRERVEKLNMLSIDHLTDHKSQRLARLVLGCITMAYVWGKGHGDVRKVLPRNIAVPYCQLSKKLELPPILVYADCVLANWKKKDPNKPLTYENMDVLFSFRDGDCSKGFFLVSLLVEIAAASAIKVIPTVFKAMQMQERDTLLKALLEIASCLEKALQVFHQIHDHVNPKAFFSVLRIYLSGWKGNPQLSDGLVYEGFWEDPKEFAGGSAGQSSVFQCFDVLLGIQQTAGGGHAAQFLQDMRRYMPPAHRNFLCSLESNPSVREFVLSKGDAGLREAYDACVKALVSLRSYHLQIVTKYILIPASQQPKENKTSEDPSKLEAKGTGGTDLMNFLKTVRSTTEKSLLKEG

B1: Deprotected-Inh-PEG8-wyvay (peptide)
peptide: [dW][dY][dV][dA][dY]-Az4
modifications: triazole N-C; not fully specified (N-terminus); reading uncertain; also: small molecule Inh joined via PEG8 linker, attachment point not given here
In general, EC50 refers to the concentration that produces a half-maximal response. On to B1, for which the IC50, IDO1 inhibition assay is 407 nM in [1] and 350 nM in test [2]. For the same molecule, the Inhibition Recombinant IDO1 IC50 in [2] came to 407 nM. The half-maximal effective concentration (EC50) in test [3] was determined as 36 nM; in test [4], 34 nM.

B2: biotin-PEG3-Cy(wyray) (peptide)
peptide: WYRAY
modifications: all D-amino acids; ring closed by triazole between flanking N-terminal Pra and C-terminal Az4; N-terminal biotin-PEG3
Consider B2, for which the concentration for a half-maximal effect (EC50) in [5], in test [6] and in [7] was 25 nM each time.

B3: Biotin-PEG3-Cy(ayray) (peptide)
peptide: AYRAY
modifications: all D-amino acids; ring closed by triazole between flanking N-terminal Pra and C-terminal Az4; N-terminal biotin-PEG3
For the molecule B3, the EC50 in test [7] was 103 nM.

B4: Biotin-PEG3-Cy(wyaay) (peptide)
peptide: WYAAY
modifications: all D-amino acids; ring closed by triazole between flanking N-terminal Pra and C-terminal Az4; N-terminal biotin-PEG3
For B4, the EC50 in test [7] stood at 65 nM.

B5: Biotin-PEG3-Cy(wyry) (peptide)
peptide: WYRY
modifications: all D-amino acids; ring closed by triazole between flanking N-terminal Pra and C-terminal Az4; N-terminal biotin-PEG3
Turning to B5, the half-maximal effective concentration (EC50) in test [7] came to 18 nM.

B6: Biotin-PEG3-Cy(wray) (peptide)
peptide: WRAY
modifications: all D-amino acids; ring closed by triazole between flanking N-terminal Pra and C-terminal Az4; N-terminal biotin-PEG3
For the molecule B6, the EC50 in test [7] turned out to be 79 nM.

B7: biotin-PEG3-Cy(rffyl) (peptide)
peptide: RFFYL
modifications: all D-amino acids; ring closed by triazole between flanking N-terminal Pra and C-terminal Az4; N-terminal biotin-PEG3
With B7, the EC50 in test [6] stood at 125 nM.

B8: Protected-Inh-PEG8-wyvay (peptide)
peptide: [dW][dY][dV][dA][dY]-Az4
modifications: triazole N-C; not fully specified (N-terminus); printed as Protected-Inh-PEG8-wyvay; reading uncertain; also: Inh hydroxyamidine masked as oxadiazolone
On to B8, for which the fold decrease in binding affinity (EC50) against the deprotected heterobiligand in test [8] was 3 fold. Besides, the IC50, IDO1 inhibition assay in [1] is more than 10000 nM. Also, the EC50 in test [9] was 92 nM.

B9: Biotin-PEG3-Cy(waray) (peptide)
peptide: WARAY
modifications: all D-amino acids; ring closed by triazole between flanking N-terminal Pra and C-terminal Az4; N-terminal biotin-PEG3
In the case of B9, in [7], the EC50 was 98 nM.

B10: Biotin-PEG3-Cy(yray) (peptide)
peptide: YRAY
modifications: all D-amino acids; ring closed by triazole between flanking N-terminal Pra and C-terminal Az4; N-terminal biotin-PEG3
Turning to B10, the EC50 in test [7] amounted to 113 nM.

B11: wyvay macrocycle (peptide)
peptide: [dW][dY][dV][dA][dY]
modifications: triazole (positions not given here); also: ring closed by flanking Pra and Az4, not in chain
For the molecule B11, the EC50 in test [5] and in test [10] was 45 nM each time.
